Measurements reported in PMC6398608 (Nature medicine, 2018).
Blank lines part the entries; values can stand above or below the molecule they belong to.

Tests used:
[1] = target: IL-2 receptor beta/gamma (Homo sapiens) (UniProt P14784); conditions: cited from earlier work
[2] = target: human interleukin-2 (recombinant IL-2, Humanzyme) (human, UniProt P60568); assay: SPR
[3] = target: human IL-2 crystallised with the F5111 Fab (human, UniProt P60568); assay: crystal structure
human IL-2 crystallised with the F5111 Fab, sequence (P60568 21-153): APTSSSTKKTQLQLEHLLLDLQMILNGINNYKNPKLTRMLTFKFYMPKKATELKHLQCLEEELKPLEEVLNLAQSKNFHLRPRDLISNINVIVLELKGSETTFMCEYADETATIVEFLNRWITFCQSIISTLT

human interleukin-2 (recombinant IL-2, Humanzyme), sequence (P60568 21-153): as above
IL-2 receptor beta/gamma (Homo sapiens), sequence (P14784 27-240, chain 1 of 2): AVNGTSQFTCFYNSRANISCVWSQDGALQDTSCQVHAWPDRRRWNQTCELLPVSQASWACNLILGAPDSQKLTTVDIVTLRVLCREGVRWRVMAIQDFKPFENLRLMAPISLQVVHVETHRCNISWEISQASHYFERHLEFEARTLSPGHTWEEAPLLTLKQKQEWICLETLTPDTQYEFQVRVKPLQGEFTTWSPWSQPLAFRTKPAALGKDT
IL-2 receptor beta/gamma (Homo sapiens), sequence (P31785 23-262, chain 2 of 2, further chain): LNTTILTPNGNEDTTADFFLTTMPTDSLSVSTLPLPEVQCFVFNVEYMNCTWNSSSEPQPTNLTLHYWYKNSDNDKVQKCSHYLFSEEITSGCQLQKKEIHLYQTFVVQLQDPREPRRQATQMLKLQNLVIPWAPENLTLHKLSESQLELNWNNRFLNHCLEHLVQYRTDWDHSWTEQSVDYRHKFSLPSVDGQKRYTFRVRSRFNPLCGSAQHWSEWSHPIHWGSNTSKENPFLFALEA

Molecule: IL-2 (from UniProt P60568)
Kd [1]: 1 nM

binding result [2]: binds
B1: F5111, fully human anti-human IL-2 IgG (antibody, V domains shown)
VH: QLQLQESGPGLVKPSQTLSLTCTVSGGSISSGGYYWSWIRQHPGKGLEWIGYIYYSGSTYYNPSLKSRVTISVDTSKNQFSLKLSSVTAADTAVYYCARTPTVTGDWFDPWGRGTLVTVSS
VL: NFMLTQPHSVSESPGKTVTISCTRSSGSIASNYVQWYQQRPGSSPTTVIYEDNQRPSGVPDRFSGSIDSSSNSASLTISGLKTEDEADYYCQSYDSSNVVFGGGTKLTVL

binding result [3]: binds
B2: F5111 Fab (Fab, V domains shown)
VH: B1 VH
VL: B1 VL
